This note sets out measurements from publication PMC8959893, “T-Cell Responses to Immunodominant Listeria Epitopes Limit Vaccine-Directed Responses to the Colorectal Cancer Antigen, Guanylyl Cyclase C” (Frontiers in Immunology, 2022).

This assay has as its target T1, peptide-H-2K^d complex (Mus musculus, UniProt P01902).
T1 construct: expressed in transfected cells; host or cells: RMA-S (TAP-deficient), stably expressing H-2K^d; provided by Dr. Sean Murphy (University of Washington)
T1 sequence (P01902 22-368): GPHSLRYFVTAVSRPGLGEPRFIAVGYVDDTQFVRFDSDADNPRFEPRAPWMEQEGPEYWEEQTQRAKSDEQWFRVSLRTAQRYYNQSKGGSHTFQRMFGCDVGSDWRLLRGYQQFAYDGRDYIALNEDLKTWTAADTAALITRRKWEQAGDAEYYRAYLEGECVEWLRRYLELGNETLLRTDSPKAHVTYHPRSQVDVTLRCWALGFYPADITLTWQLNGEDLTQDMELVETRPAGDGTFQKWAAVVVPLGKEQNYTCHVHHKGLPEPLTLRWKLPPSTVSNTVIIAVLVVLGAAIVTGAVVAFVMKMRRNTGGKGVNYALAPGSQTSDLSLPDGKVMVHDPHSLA
T1 sequence (P01887 21-119 partner): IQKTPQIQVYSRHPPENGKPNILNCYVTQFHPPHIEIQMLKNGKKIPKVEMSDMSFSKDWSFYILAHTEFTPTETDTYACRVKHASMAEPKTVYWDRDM
Type of assay: cell-based. Conditions: for half-life (t1/2) of peptide-H-2K^d complex: Figure 4D, flow cytometry MFI, nonlinear regression of two experiments. As to the method: As previously described ([27]), RMA-S-H-2K^d cells were incubated overnight at 26°C with 30 ug/mL of each peptide. In the morning, cells were incubated 2 h at 37°C, washed 3x with PBS to remove unbound peptide, and incubated an additional 2, 4, or 6 h at 37°C. Cells were then stained with anti-H-2K^d-PE antibody (Invitrogen, Clone SF1-1.1.1), and surface H-2K^d was quantified as mean fluorescence intensity (MFI) by flow cytometry. The percent change in surface peptide-H-2K^d complexes was calculated using the formula, MFI^peptide−MFI^no peptide/MFI^0 hrs−MFI^no peptide×100 ([28]). The t1/2 for the peptide-MHC complex was calculated by nonlinear regression.
(In general: In flow cytometry, cells or beads pass a laser one at a time.)

The mark [1] stands for this setting: RMA-S-H-2K^d cells, 30 ug/mL peptide overnight at 26°C, 2 h at 37°C, washed, additional 2, 4 or 6 h at 37°C.

Regarding “GUCY2CF255Y: GUCY2C254-262 peptide variant with F255Y point mutation at an H-2K^d anchoring residue (SYYDVKGDL; UniProt Q3UWA6 254-262, looked up, variant F255Y)”, the “half-life (t1/2) of peptide-H-2K^d complex” value (shortened to “half-life”) under setting [1] amounted to 8.3 h.
For “GUCY2C254-262: dominant H-2K^d-restricted CD8+ T-cell epitope of mouse guanylyl cyclase C, residues 254-262 (SFYDVKGDL; UniProt Q3UWA6 254-262, looked up, fragment)”, where the note is “Figure 3, stated in Discussion”, the “Dissociation from MHC, fold faster than Lm-derived peptide-H-2K^d complexes” value is > 5 fold. In addition, the “t1/2 of peptide-H-2K^d complex” value (Figure 3C, RMA-S-H-2K^d cells, 30 ug/mL peptide overnight at 26°C, 2 h at 37°C, washed, additional 2, 4 or 6 h at 37°C, anti-H-2K^d-PE MFI by flow cytometry, nonlinear regression, representative of two experiments) is given as 1.8 h. Besides, the “half-life” value under setting [1] amounted to 2.1 h.
Take “GUCY2CL262I: GUCY2C254-262 peptide variant with L262I point mutation at an H-2K^d anchoring residue (SFYDVKGDI; UniProt Q3UWA6 254-262, looked up, variant L262I)”: the “half-life” value under setting [1] was 1.0 h.
